Test results from patent US20060018902A1 (published 2006).

T1: soluble EpoR (EposR) (human, UniProt P19235 25-250)
T1 chain: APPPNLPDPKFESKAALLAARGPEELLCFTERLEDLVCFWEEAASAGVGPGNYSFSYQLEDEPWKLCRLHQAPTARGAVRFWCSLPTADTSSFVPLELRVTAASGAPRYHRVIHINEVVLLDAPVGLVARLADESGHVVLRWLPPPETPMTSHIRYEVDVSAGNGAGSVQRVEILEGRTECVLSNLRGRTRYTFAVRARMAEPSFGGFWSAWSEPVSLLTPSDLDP

T2: human erythropoietin receptor (EpoR) on human erythroleukemic cells (human, UniProt P19235 25-508)
T2 sequence (looked up): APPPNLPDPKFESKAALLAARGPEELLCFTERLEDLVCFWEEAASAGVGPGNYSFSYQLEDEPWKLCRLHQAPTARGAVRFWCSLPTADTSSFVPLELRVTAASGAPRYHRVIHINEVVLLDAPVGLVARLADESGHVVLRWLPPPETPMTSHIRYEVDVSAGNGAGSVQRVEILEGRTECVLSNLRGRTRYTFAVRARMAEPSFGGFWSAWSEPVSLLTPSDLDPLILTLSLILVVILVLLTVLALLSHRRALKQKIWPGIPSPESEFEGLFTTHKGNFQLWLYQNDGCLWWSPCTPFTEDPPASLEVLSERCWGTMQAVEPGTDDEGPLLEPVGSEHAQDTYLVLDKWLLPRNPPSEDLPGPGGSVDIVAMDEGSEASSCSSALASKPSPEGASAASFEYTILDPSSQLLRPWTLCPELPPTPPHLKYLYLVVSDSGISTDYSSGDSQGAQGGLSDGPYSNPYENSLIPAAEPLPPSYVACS

T3: soluble EpoR (EposR) (human, UniProt P19235 25-250, limits assumed)
T3 construct: also called soluble recombinant human EpoR
T3 sequence (looked up): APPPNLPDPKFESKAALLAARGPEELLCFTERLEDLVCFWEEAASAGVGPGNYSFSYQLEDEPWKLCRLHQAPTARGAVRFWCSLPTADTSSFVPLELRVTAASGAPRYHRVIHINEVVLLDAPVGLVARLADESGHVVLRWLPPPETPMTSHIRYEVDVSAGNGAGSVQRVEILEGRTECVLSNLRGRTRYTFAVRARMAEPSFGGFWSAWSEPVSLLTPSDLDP

B1: Ab12 41/40 scFv (linker 41 as tether, linker 40 as scFv linker), displayed on yeast (scFv)
scFv: GENKVEYAPALMALSQVQLQESGPGLVKPSETLSLTCTVSGASISSYYWSWIRQPPGKGLEWIGYIYYSGSTNYNPSLKSRVTISVDTSKNQFSLKLRSVTAADTAVYYCARERLGIGDYWGQGTLVTVSSGPAKELTPLKEAKVSDIQLTQSPSSLSASVGDRVTITCRASQGIRNDLGWYQQKPGKAPKRLIYAASSLQSGVPSRFSGSGSGTEFTLTISSLQPEDFATYYCLQHNTYPPTFGQGTKVEIK
B2: Ab12 scFv construct with Gly/Ser linker (WT) in both the tether and scFv linker positions, displayed on yeast (scFv)
scFv: GGGGSGGGGSGGGGSQVQLQESGPGLVKPSETLSLTCTVSGASISSYYWSWIRQPPGKGLEWIGYIYYSGSTNYNPSLKSRVTISVDTSKNQFSLKLRSVTAADTAVYYCARERLGIGDYWGQGTLVTVSSGGGGSGGGGSGGGGSDIQLTQSPSSLSASVGDRVTITCRASQGIRNDLGWYQQKPGKAPKRLIYAASSLQSGVPSRFSGSGSGTEFTLTISSLQPEDFATYYCLQHNTYPPTFGQGTKVEIK
B3: Ab12 scFv construct with linker 41 in the tether position and linker 34 in the scFv linker position, displayed on yeast (scFv)
scFv: GENKVEYAPALMALSQVQLQESGPGLVKPSETLSLTCTVSGASISSYYWSWIRQPPGKGLEWIGYIYYSGSTNYNPSLKSRVTISVDTSKNQFSLKLRSVTAADTAVYYCARERLGIGDYWGQGTLVTVSSGHEAAAVMQVQYPASDIQLTQSPSSLSASVGDRVTITCRASQGIRNDLGWYQQKPGKAPKRLIYAASSLQSGVPSRFSGSGSGTEFTLTISSLQPEDFATYYCLQHNTYPPTFGQGTKVEIK
B4: Ab12 scFv construct with linker 41 in the tether position and the Gly/Ser linker (WT) in the scFv linker position, displayed on yeast (scFv)
scFv: GENKVEYAPALMALSQVQLQESGPGLVKPSETLSLTCTVSGASISSYYWSWIRQPPGKGLEWIGYIYYSGSTNYNPSLKSRVTISVDTSKNQFSLKLRSVTAADTAVYYCARERLGIGDYWGQGTLVTVSSGGGGSGGGGSGGGGSDIQLTQSPSSLSASVGDRVTITCRASQGIRNDLGWYQQKPGKAPKRLIYAASSLQSGVPSRFSGSGSGTEFTLTISSLQPEDFATYYCLQHNTYPPTFGQGTKVEIK
B5: Ab12 IgG2/K (antibody, V domains shown)
VH: QVQLQESGPGLVKPSETLSLTCTVSGASISSYYWSWIRQPPGKGLEWIGYIYYSGSTNYNPSLKSRVTISVDTSKNQFSLKLRSVTAADTAVYYCARERLGIGDYWGQGTLVTVSS
VL: DIQLTQSPSSLSASVGDRVTITCRASQGIRNDLGWYQQKPGKAPKRLIYAASSLQSGVPSRFSGSGSGTEFTLTISSLQPEDFATYYCLQHNTYPPTFGQGTKVEIK
notes: Human IgG2/kappa
B6: Ab12.6 (antibody, V domains shown)
VH: QVQLQESGPGLVKPSETLSLTCTVSGASISSYYWSWIRQPPGKGLEWIGYIGGEGSTNYNPSLKSRVTISVDTSKNQFSLKLRSVTAADTAVYYCARERLGIGDYWGQGTLVTVSS
VL: DIQLTQSPSSLSASVGDRVTITCRASQGIRNDLGWYQQKPGKAPKRLIYAASSLQSGVPSRFSGSGSGTEFTLTISSLQPEDFATYYCLQHNTYPPTFGQGTKVEIK
notes: CDRH2 Y Y S is changed to G G E against Ab12; also called H2-1-3 R2 #6
B7: Ab12.56 (antibody, V domains shown)
VH: QVQLQESGPGLVKPSETLSLTCTVSGASISSYYWSWIRQPPGKGLEWIGYIAGTGSTNYNPSLKSRVTISVDTSKNQFSLKLRSVTAADTAVYYCARERLGIGDYWGQGTLVTVSS
VL: DIQLTQSPSSLSASVGDRVTITCRASQGIRNDLGWYQQKPGKAPKRLIYAASSLQSGVPSRFSGSGSGTEFTLTISSLQPEDFATYYCLQHNTYPPTFGQGTKVEIK
notes: CDRH2 Y Y S is changed to A G T against Ab12
B8: Ab12.70 (antibody, V domains shown)
VH: QVQLQESGPGLVKPSETLSLTCTVSGASISSYYWSWIRQPPGKGLEWIGYIYSPSSTNYNPSLKSRVTISVDTSKNQFSLKLRSVTAADTAVYYCARERLGIGDYWGQGTLVTVSS
VL: DIQLTQSPSSLSASVGDRVTITCRASQGIRNDLGWYQQKPGKAPKRLIYAASSLQSGVPSRFSGSGSGTEFTLTISSLQPEDFATYYCLQHNTYPPTFGQGTKVEIK
notes: also called H2-4-1 R2 #8,9
B9: Ab12.118 (antibody, IgG2, V domains shown)
VH: QVQLQESGPGLVKPSETLSLTCTVSGASISSYYWSWIRQPPGKGLEWIGYIGYSGSTNYNPSLKSRVTISVDTSKNQFSLKLRSVTAADTAVYYCARERLGIGDYWGQGTLVTVSS
VL: DIQLTQSPSSLSASVGDRVTITCRASQGIRNDLGWYQQKPGKAPKRLIYAASSLQSGVPSRFSGSGSGTEFTLTISSLQPEDFATYYCLQHNTYPPTFGQGTKVEIK
B10: Ab12.119 (antibody, IgG2, V domains shown)
VH: QVQLQESGPGLVKPSETLSLTCTVSGASISSYYWSWIRQPPGKGLEWIGYIYGSGSTNYNPSLKSRVTISVDTSKNQFSLKLRSVTAADTAVYYCARERLGIGDYWGQGTLVTVSS
VL: DIQLTQSPSSLSASVGDRVTITCRASQGIRNDLGWYQQKPGKAPKRLIYAASSLQSGVPSRFSGSGSGTEFTLTISSLQPEDFATYYCLQHNTYPPTFGQGTKVEIK
B11: Ab12.120 (antibody, IgG2, V domains shown)
VH: QVQLQESGPGLVKPSETLSLTCTVSGASISSYYWSWIRQPPGKGLEWIGYIYYEGSTNYNPSLKSRVTISVDTSKNQFSLKLRSVTAADTAVYYCARERLGIGDYWGQGTLVTVSS
VL: DIQLTQSPSSLSASVGDRVTITCRASQGIRNDLGWYQQKPGKAPKRLIYAASSLQSGVPSRFSGSGSGTEFTLTISSLQPEDFATYYCLQHNTYPPTFGQGTKVEIK
B12: Ab12.121 (antibody, IgG2, V domains shown)
VH: QVQLQESGPGLVKPSETLSLTCTVSGASISSYYWSWIRQPPGKGLEWIGYIGGSGSTNYNPSLKSRVTISVDTSKNQFSLKLRSVTAADTAVYYCARERLGIGDYWGQGTLVTVSS
VL: DIQLTQSPSSLSASVGDRVTITCRASQGIRNDLGWYQQKPGKAPKRLIYAASSLQSGVPSRFSGSGSGTEFTLTISSLQPEDFATYYCLQHNTYPPTFGQGTKVEIK
B13: Ab12.122 (antibody, IgG2, V domains shown)
VH: QVQLQESGPGLVKPSETLSLTCTVSGASISSYYWSWIRQPPGKGLEWIGYIYGEGSTNYNPSLKSRVTISVDTSKNQFSLKLRSVTAADTAVYYCARERLGIGDYWGQGTLVTVSS
VL: DIQLTQSPSSLSASVGDRVTITCRASQGIRNDLGWYQQKPGKAPKRLIYAASSLQSGVPSRFSGSGSGTEFTLTISSLQPEDFATYYCLQHNTYPPTFGQGTKVEIK
B14: Ab12.123 (antibody, IgG2, V domains shown)
VH: QVQLQESGPGLVKPSETLSLTCTVSGASISSYYWSWIRQPPGKGLEWIGYIGYEGSTNYNPSLKSRVTISVDTSKNQFSLKLRSVTAADTAVYYCARERLGIGDYWGQGTLVTVSS
VL: DIQLTQSPSSLSASVGDRVTITCRASQGIRNDLGWYQQKPGKAPKRLIYAASSLQSGVPSRFSGSGSGTEFTLTISSLQPEDFATYYCLQHNTYPPTFGQGTKVEIK

What was measured:
soluble EpoR (EposR) [1] = target: T1, soluble EpoR (EposR); assay: yeast display flow cytometry
[2] = target: T2, human erythropoietin receptor (EpoR) on …; assay: cell-based or functional assay
soluble EpoR (EposR) [3] = target: T3, soluble EpoR (EposR); assay: SPR (BIAcore), IgG2/K antibody, EposR as test antigen
Method: (§1) BIAcore analyses were performed on a BIAcore 2000 utilizing the BIAcontrol software version 3.1.0 and on a BIAcore 3000 utilizing the BIAcontrol software version 4.0.1. (BIAcore, Uppsala, Sweden) using EposR as the test antigen.

soluble EpoR (EposR) [4] = target: T3, soluble EpoR (EposR); assay: SPR (BIAcore), IgG2/K sub-variant of Ab12.6, EposR as test antigen
Method: as §1
Sub-variants also were subjected to BIAcore analyses as described above.

Row | Binder | Kd (soluble EpoR (EposR) [1]) [nM] | EC50 (cell proliferation) [2] [nM] | Emax (cell proliferation, absorbance) [2] | Kd (soluble EpoR (EposR) [3]) [nM] | koff (soluble EpoR (EposR) [3]) [s⁻¹] | kon (soluble EpoR (EposR) [3]) [M⁻¹ s⁻¹] | Kd (soluble EpoR (EposR) [4]) [nM] | koff (soluble EpoR (EposR) [4]) [s⁻¹] | kon (soluble EpoR (EposR) [4]) [M⁻¹ s⁻¹]
1 | B1 | 4 | – | – | – | – | – | – | – | –
2 | B2 | 9 | – | – | – | – | – | – | – | –
3 | B3 | 8.5 | – | – | – | – | – | – | – | –
4 | B4 | 5 | – | – | – | – | – | – | – | –
5 | B5 | – | 1.29 | 1.98 absorbance (OD 490 nm) | 11 | 0.0013 | 140000 | – | – | –
6 | B6 | – | 0.58 | 2.81 absorbance (OD 490 nm) | 32 | 0.0048 | 150000 | – | – | –
7 | B7 | – | 1.17 | 2.51 absorbance (OD 490 nm) | 20 | 0.0019 | 94000 | – | – | –
8 | B8 | – | – | – | 6 | 0.00099 | 160000 | – | – | –
9 | B9 | – | 1.13 | 2.65 absorbance (OD 490 nm) | – | – | – | 22 | 0.0055 | 250000
10 | B10 | – | 1.34 | 2.53 absorbance (OD 490 nm) | – | – | – | 21 | 0.0044 | 210000
11 | B11 | – | 0.34 | 2 absorbance (OD 490 nm) | – | – | – | 7 | 0.002 | 270000
12 | B12 | – | 0.465 | 2.3 absorbance (OD 490 nm) | – | – | – | 31 | 0.0063 | 210000
13 | B13 | – | 0.42 | 2.4 absorbance (OD 490 nm) | – | – | – | 23 | 0.0049 | 220000
14 | B14 | – | 0.91 | 2.7 absorbance (OD 490 nm) | – | – | – | 25 | 0.0033 | 130000
